According to article PMC5071372, “Combining biophysical methods to analyze the disulfide bond in SH2 domain of C-terminal Src kinase” (Biophysics Reports, 2016):
Square brackets hold non-standard residues; d marks the D form. Ends that are not written are not given here. pY = N[C@@H](Cc1ccc(OP(=O)(O)O)cc1)C(=O)O

How the values were obtained:
[1] = molecular target: T1, Csk L-SH2 domain (A73–A178), reduced form (human, UniProt P41240 73-178); test: other fluorescence titration; intrinsic tryptophan fluorescence of L-SH2 (typically 5 μmol/L) titrated with Cbp peptide; 25 °C, 3 mL of 50 mmol/L Tris-HCl pH 7.5; excitation 288 nm, emission 320 nm; conditions: both partners purified
T1 construct: C-terminal Src kinase (Csk), human, SH2 domain with part of the SH3-SH2 linker, residues A73-A178; C122 and C164 as free thiols; Cloned into pTWIN1 as described in Liu et al. 2009; 15N/13C-labelled for the NMR experiments; PDB 3EAC is the oxidized form of the same construct; also called reduced SH2; reduced L-SH2; source: E. coli BL21 (DE3) RIL, purified (chitin beads, intein cleaved with 50 …)
T1 sequence (looked up): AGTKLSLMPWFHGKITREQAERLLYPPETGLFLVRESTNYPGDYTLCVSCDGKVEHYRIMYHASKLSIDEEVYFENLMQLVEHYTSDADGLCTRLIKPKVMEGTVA

[2] = molecular target: T2, Csk L-SH2 domain (A73–A178), oxidized form (human, UniProt P41240 73-178, disulfide bond C122–C164); test: as above; conditions: both partners purified
T2 construct: C-terminal Src kinase (Csk), human, SH2 domain with part of the SH3-SH2 linker, residues A73-A178; intramolecular disulfide bond between C122 and C164; Same polypeptide as m1, differing only in the C122–C164 disulfide bond; also called oxidized SH2; oxidized L-SH2; source: E. coli BL21 (DE3) RIL, purified (chitin beads, intein cleaved with DTT, Mono Q); oxidized by exposure to air for about a …
T2 sequence (looked up): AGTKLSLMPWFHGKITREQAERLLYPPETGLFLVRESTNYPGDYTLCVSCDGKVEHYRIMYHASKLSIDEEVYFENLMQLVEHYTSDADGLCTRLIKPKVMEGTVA

B1: Cbp phosphopeptide ISAMpYSSVNK (peptide)
peptide: ISAM[pY]SSVNK
notes: also called Cbp peptide; Cbp-phosphorylated peptide; source: synthetic peptide (GenScript, solid-phase synthesis)
[1]
  Kd: 520 ± 50 nM
[2]
  Kd: 990 ± 80 nM
